Several values for one entry are separate records, joined by “and”; a condition that tells them apart may be missing. Equal entries are not always repeated.

As a reminder, the stoichiometry N is the number of molecules, sites or subunits per partner or assembly.

Experiment [1] has as its target LapD^TMcys-A602C lacking sfGFP (non-fluorescent) (Pseudomonas fluorescens Pf0-1) (UniProt Q3KK31). The experiment can be described thus: SEC-MALS; apo protein, ~10 mg/ml (~140 μM), Superdex 200 10/300; 25 mM Tris-HCl pH 7.6, 250 mM NaCl, 0.005% LMNG, 0.04% CHAPS; protein-conjugate analysis. For orientation: SEC sorts molecules by how far they enter the pores of the column.

Experiment [2] concerns the target LapD–sfGFP (native LapD with C-terminal monomeric superfolder GFP) (Pseudomonas fluorescens Pf0-1) (UniProt Q3KK31). The description is as above.
In experiment [3] the target is LapD^TMcys lacking sfGFP (non-fluorescent; C304A, C397S) (Pseudomonas fluorescens Pf0-1) (UniProt Q3KK31). The description is as above.
Experiment [4] addresses LapD (Pseudomonas fluorescens Pf0-1), full-length, non-fluorescent, detergent-solubilized (Pseudomonas fluorescens Pf0-1) (UniProt Q3KK31). The experiment is described as follows: SEC-MALS; LapD incubated with LapG and c-di-GMP; c-di-GMP omitted from the mobile phase.
For experiment [5] the target is unchanged. The experiment is described as follows: SEC-MALS; LapD (~28 μM) incubated with 100 μM c-di-GMP, concentrated ~5-fold; 20 μM c-di-GMP in the mobile phase.
For experiment [6] the target is unchanged. The experiment is described as follows: SEC-MALS; LapD incubated with 100 μM c-di-GMP and a 3-fold molar excess of LapG over LapD dimer, concentrated; 20 μM c-di-GMP in the mobile phase.
For experiment [7] the target is unchanged. The experiment is described as follows: SEC-MALS; apo protein, ~10 mg/ml (~140 μM), Superdex 200 10/300; 25 mM Tris-HCl pH 7.6, 250 mM NaCl, 0.005% LMNG, 0.04% CHAPS; protein-conjugate analysis.
The target of experiment [8] is LapG labeled with Oregon Green 488 maleimide at C135 (Pseudomonas fluorescens Pf0-1). The experiment is described as follows: fluorescence polarisation; fluorescence anisotropy; 1 µM Oregon Green 488-labeled LapG fixed, detergent-solubilized LapD titrated 1–36 µM; without c-di-GMP; apparent.
Experiment [9] has the same target. The experiment is described as follows: fluorescence polarisation; fluorescence anisotropy; 1 µM Oregon Green 488-labeled LapG fixed, detergent-solubilized LapD titrated 1–36 µM; with 100 µM c-di-GMP; apparent. For orientation: Polarisation of emitted light reports the rotation of a fluorescent probe.

As for “LapD^TMcys-A602C lacking sfGFP (non-fluorescent) (from UniProt Q3KK31 1-648) (receptor)”, the stoichiometry N in [1] worked out at 2.
In experiment [2], “LapD–sfGFP (native LapD with C-terminal monomeric superfolder GFP) (from UniProt Q3KK31 1-648) (receptor)” displayed a stoichiometry N of 2.
In the case of “LapD^TMcys lacking sfGFP (non-fluorescent; C304A, C397S) (from UniProt Q3KK31 1-648) (receptor)”, in [3], the stoichiometry N worked out at 2.
In the case of “LapD (Pseudomonas fluorescens Pf0-1), full-length, non-fluorescent, detergent-solubilized (from UniProt Q3KK31 1-648) (receptor)”, the stoichiometry N in experiment [4] is 2; in [5] it was 4 and 2; in experiment [6] it was 4; in [7], 2. The Kd in experiment [8] is 11.7 µM; in experiment [9] it was 1.9 µM.

The values are drawn from paper PMC5231407.
